Literature values, collected in publication PMC3951123.

Legend:
Experiment in all cases: SPR
[1] = target: Syk linker B peptide SykLB-YpY (Mus musculus) (UniProt P48025)
[2] = target: Syk linker B peptide SykLB-pYpY (Mus musculus) (UniProt P48025)
[3] = target: Syk linker B peptide SykLB-pYY (Mus musculus) (UniProt P48025)

Substance: Vav1 SH2 (from UniProt P15498)
- Kd [1]: 71 µM
- Kd [2]: 7.4 µM
- Kd [3]: 14.6 µM
